From PMC11477141, “Chemokine Receptor N-Terminus Charge Dictates Reliance on Post-Translational Modifications for Effective Ligand Capture and Following Boosting by Defense Peptides” (International Journal of Molecular Sciences, 2024)
Changes are numbered by the printed parent chain. Names may count otherwise. Where no end group is shown, it is not given here.

Columns and labels:
CCR5 = biological target: T1, CCR5 (Homo sapiens, UniProt P51681); assay: BRET CAMYEL cAMP sensor assay of ligand-induced Gαi signaling via CCR5; assay type: cell-based; settings: n = 3; for Gαi signaling via CCR5 in DeltaSia cells compared to WT cells: HEK293 DeltaSia (ST3GAL1/2 KO); for Gαi signaling via CCR5 in sC cells compared to WT cells: HEK293 sC (C1GALT1 KO); for Gαi signaling via M1-CCR5 in DeltaSia and sC cells compared to WT cells: M1-tagged CCR5, HEK293 DeltaSia and sC; for Gαi signaling via CCR5 in DeltaSia and sC cells: HEK293 DeltaSia and sC, CCL5 oligomerization variants experiment; for Gαi signaling via CCR5 compared to WT CCL5: HEK293 WT cells
T1 construct: expressed in transfected cells; host or cells: CHO-K1, CHO-pgsB618 (GAG-minus), HEK293 WT / DeltaSia / sC
Method: (§1) For quantification of signaling initiated immediate downstream of receptor activation, we used the cAMP binding CAMYEL sensor to perform bioluminescence resonance energy transfer (BRET)-based assays. Shortly, in this assay increased receptor activation leads to an increase in BRET ratio. For detailed information see the Materials and Methods section.
(§2) In signaling assays testing the boosting ability of basic peptides, transfected cells were aliquoted into 96-well plates in the presence of 10 µM peptide or PBS vehicle. After R-Luc substrate addition, chemokines were added to reach final concentrations ranging from 0–100 nM (0, 0.1, 1, 10, and 100 nM) and forskolin was applied before reading emission at 475 and 525 nm.
(§3) BRET measurements of Gαi signaling and β-arrestin recruitment: Cells were seeded in 6-well plates (500,000 cells/well) and transiently transfected the following day. For BRET measurements of Gαi signaling, cells were transfected with vectors encoding the human chemokine receptors as indicated (160 ng/well) and the CAMYEL sensor (cAMP sensor, YFP-Epac-RLuc) (840 ng/well) using Lipofectamine (6 µL/well). Briefly, DNA was dissolved in 125 µL OPTI-MEM and Lipofectamine was dissolved in 125 µL OPTI-MEM. The DNA and Lipofectamine solutions were combined into a transfection mixture. The transfection mixture was added dropwise to cells incubated in OPTI-MEM (1 mL/well). Transfections were terminated after 5 h by adding 1 mL of fresh culture medium on top of the OPTI-MEM. The following day the cells were loosened from the plates in PBS with 5 mM glucose and subsequently aliquoted in white 96-well iso plates (~25,000 cells/well). When using C21TP variants and defense peptides (hBD2 and histatin), these were added to a final concentration of 10 μM/well, while an equal amount of PBS was added to control cells. The bioluminescence substrate coelenterazine was added to a final conc. of 5 µM. After 10 min, varying ligand concentrations were added. For BRET measurements of Gαi signaling, forskolin was added 5 min after the addition of the ligand, to a final conc. of 5 µM. The plates were kept in the dark at all times. A Perkin Elmer Envision machine was used for measuring the emission signals at 530 and 480 nm. The BRET signal is determined as the ratio eYFP (530 nm)/Rluc (480 nm).
(§4) BRET principle with CAMYEL: For quantification of signaling initiated immediately downstream of receptor activation, we used the cAMP binding CAMYEL sensor to perform bioluminescence resonance energy transfer (BRET) based assays. In this assay we measure changes in intracellular cAMP levels in response to receptor activation. Activation of chemokine receptors lead to a decrease in cAMP through inhibition of adenylate cyclase (AC). In the current setup we initially add forskolin that stimulates AC directly to induce an increase in intracellular cAMP, and we then measure the ability of a ligand (chemokine) to counteract the forskolin-induced increase in cAMP. The cAMP sensor (CAMYEL cAMP sensor, YFP-Epac-RLuc) carries the donor Renilla luciferase (Rluc) and the acceptor YFP. Coelenterazine is a substrate for Rluc that will emit light at around 475 nm upon enzymatic cleavage catalyzed by Rluc. When Rluc and YFP are in close proximity, the energy from the emitted light from coelenterazine can be transferred to YFP, resulting in an excitation of YFP, leading to a BRET signal around 525 nm. EPAC is a cAMP binding protein that changes conformation upon cAMP binding. During low cAMP concentrations, Rluc and YFP are near each other, and a strong BRET signal at 525 nm is obtained. When cAMP levels increase, cAMP will bind to EPAC, creating a conformational change, separating Rluc and YFP, reducing the BRET ratio, and increasing the emission from Rluc at 475 nm. Thus, by measuring the ratio between the cAMP-bound (475 nm) and the cAMP-free (525 nm) state of CAMYEL we obtain a measure of receptor activation. […]

CCR1 = biological target: T2, CCR1 (Homo sapiens, UniProt P32246); assay: BRET CAMYEL cAMP sensor assay of ligand-induced Gαi signaling via CCR1; assay type: cell-based; settings: n = 3; for boosting of CCL5-induced Gαi signaling via CCR1 / boosting of CCL7-induced Gαi signaling via CCR1 / effect on CCL3-induced Gαi signaling via CCR1: CHO-K1 cells, 10 µM peptide, chemokine 0-100 nM; for Gαi signaling via CCR1 in DeltaSia and sC cells: CCL5 oligomerization variants experiment; for Gαi signaling via CCR1 compared to WT CCL5: HEK293 WT cells
T2 construct: expressed in transfected cells; host or cells: CHO-K1, CHO-pgsB618 (GAG-minus), HEK293 WT / DeltaSia / sC
T2 sequence (P32246 1-355): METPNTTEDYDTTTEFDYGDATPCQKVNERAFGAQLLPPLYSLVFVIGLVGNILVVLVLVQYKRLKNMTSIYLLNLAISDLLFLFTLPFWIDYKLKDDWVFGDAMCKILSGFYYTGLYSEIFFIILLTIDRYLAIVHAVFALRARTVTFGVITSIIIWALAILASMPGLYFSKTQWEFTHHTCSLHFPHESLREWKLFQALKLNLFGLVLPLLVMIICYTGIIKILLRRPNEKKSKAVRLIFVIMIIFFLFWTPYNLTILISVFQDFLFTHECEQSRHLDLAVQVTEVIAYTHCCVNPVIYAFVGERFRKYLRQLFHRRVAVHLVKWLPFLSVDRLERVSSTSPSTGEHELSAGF
Method: as §1, §2, §3, §4

CCR5-1like = assay: BRET CAMYEL Gαi signaling via chimeric receptor M1-CCR5-1like; assay type: cell-based, human; settings: HEK293 DeltaSia and sC, n = 3
Excerpt: To finally determine if the lack of acidic amino acids in the CCR5 N-terminus can explain the dependency of this receptor on O-glycosylation for effective ligand interaction, we constructed a CCR5 receptor chimera, where the most acidic N-terminal region of CCR1 was inserted into the CCR5 N-terminus, creating the chimeric receptor CCR5-1like (Figure 7).
Figure 7 Receptor N-termini representing CCR1, CCR5, and the chimeric CCR5-1like. The CCR1 N-terminus contains a lot of acidic amino acids (outlined in red) in the form of aspartic acid (D) and glutamic acid (E), whereas CCR5 only contains a few. The chimeric receptor CCR5-1like that contains part of the CCR1 receptor N-terminus (ETTTDYDE) resembles CCR1 with regard to acidic amino acid content and spacing, but they are not the same.
as §3
as §4, with “nm.” for “nm. EPAC is a cAMP binding protein that changes conformation upon cAMP binding. During low cAMP concentrations, Rluc and YFP are near each other, and a strong BRET signal at 525 nm is obtained. When cAMP levels increase, cAMP will bind to EPAC, creating a conformational change, separating Rluc and YFP, reducing the BRET ratio, and increasing the emission from Rluc at 475 nm. Thus, by measuring the ratio between the cAMP-bound (475 nm) and the cAMP-free (525 nm) state of CAMYEL we obtain a measure of receptor activation.”

naked CCR5 N-terminus = assay: Fluorescence polarization binding to FAM-labeled CCR5 N-terminal peptide; set-up: species or system human
Method: (§5) Fluorescence polarization (FP) assay: The carboxyfluorescein (FAM)-labeled peptides representing the CCR1 and CCR5 N-termini functioned as the probes for quantifying the interaction between the receptor N-terminus and C21TP^81-111. The probe was diluted in FP buffer (1:3, PBS:MilliQ) and 10 µL was added to a final concentration of 250 nM per well in a black 384-well plate (Corning). The C21TP^81-111 peptide (2 mM) was diluted using a two-fold dilution series; 30 µL of the peptide was added to each well to final concentrations ranging from 12.21 nM to 100 µM. Blanks containing 10 µL probe and 30 µL FP buffer were included. The plate was spun down at 1000 rpm for 1 min and the FP signal was measured on a Flex station using SoftMax Pro software 7.0. Each experiment was conducted in triplicate. The binding curves were generated by plotting the FP signal, expressed as millipolarization units (mP), against C21TP^81-111 concentration. The dissociation constant (Kd) value was calculated using GraphPad Prism 9.
(§6) Probes: • CCR1: (5,6-FAM)-[…], • CCR5: (5,6-FAM)-ADYQVSSPIYDINYYTSEP.

naked CCR1 N-terminus = naked CCR1 N-terminus (Homo sapiens, UniProt P32246); assay: Fluorescence polarization binding to FAM-labeled CCR1 N-terminal peptide; settings: FAM-labeled CCR1 N-terminal peptide
Method: as §5, §6

CCR2 = settings: cited from earlier work
Excerpt: The reliance on electrostatic interactions between basic amino acids in the chemokine and acidic regions in the receptor N-terminus for chemokine receptor binding is illustrated by a study carried out by Hemmerich et al.. To investigate the influence of charge, hydrophobicity, and aromaticity on binding of CCL2 to its cognate receptor CCR2, this group substituted all surface-exposed residues on CCL2 by alanine. […] In contr ...

T1 sequence (P51681 whole entry): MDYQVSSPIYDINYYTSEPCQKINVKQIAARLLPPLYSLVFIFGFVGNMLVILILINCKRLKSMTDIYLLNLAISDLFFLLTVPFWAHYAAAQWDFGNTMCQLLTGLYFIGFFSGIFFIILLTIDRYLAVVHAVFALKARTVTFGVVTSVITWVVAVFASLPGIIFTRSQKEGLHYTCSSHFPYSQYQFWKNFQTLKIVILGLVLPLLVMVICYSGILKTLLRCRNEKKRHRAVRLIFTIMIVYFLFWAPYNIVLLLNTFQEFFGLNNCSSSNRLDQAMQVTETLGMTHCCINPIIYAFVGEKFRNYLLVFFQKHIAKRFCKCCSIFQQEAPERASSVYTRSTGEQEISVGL
Chain of naked CCR1 N-terminus (P32246 with tags, fused parts or gaps limits assumed): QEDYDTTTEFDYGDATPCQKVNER

## CCL3: human chemokine from Peprotech, overall acidic
CCR5
  Gαi signaling via CCR5 in DeltaSia cells compared to WT cells: drastically reduced
  Gαi signaling via CCR5 in sC cells compared to WT cells: drastically reduced
  Gαi signaling via M1-CCR5 in DeltaSia and sC cells compared to WT cells: drastically reduced
CCR1; HEK293 DeltaSia and sC
  Gαi signaling via CCR1 in DeltaSia and sC cells compared to WT cells: persists in DeltaSia and sC to almost the same high level as observed in WT cells
CCR5-1like
  Gαi signaling via M1-CCR5-1like in DeltaSia and sC cells compared to WT cells: persists in DeltaSia and sC to almost the same high level as observed in WT cells

## histatin1: human host defense peptide, less basic than hBD2, from Caslo (DSHEKRHHGYRRKFHEKHHSHREFPFYGDYGSNYLYDN) [reference compound]
CCR1
  boosting of CCL5-induced Gαi signaling via CCR1: also boosted the potency of both these chemokines, although to a lesser extent
  boosting of CCL7-induced Gαi signaling via CCR1: also boosted the potency of both these chemokines, although to a lesser extent
  effect on CCL3-induced Gαi signaling via CCR1: not affected
Naked CCR5 N-terminus
  binding to the naked CCR5 N-terminus: neither of the HDPs bound
Naked CCR1 N-terminus
  binding to the naked CCR1 N-terminus: bind in a dose-dependent manner

## R24A: CCL2 with R24A substitution (literature)
CCR2
  reduction of CCL2 binding to CCR2 by substitution in CCL2: ~ 30 fold

## human beta defensin 2 (GIGDPVTCLKSGAICHPVFCPRRYKQIGTCGLPGTKCCKKP; ends and bridges not checked; cysteine pairing not given here) [hBD2, human anti-microbial / host defense peptide, from Caslo, reference compound]
CCR1
  boosting of CCL5-induced Gαi signaling via CCR1: as efficient in boosting signaling via CCR1 by CCL5 and CCL7 as C21TP^81-111
  boosting of CCL7-induced Gαi signaling via CCR1: as efficient in boosting signaling via CCR1 by CCL5 and CCL7 as C21TP^81-111
  effect on CCL3-induced Gαi signaling via CCR1: not affected
Naked CCR5 N-terminus
  binding to the naked CCR5 N-terminus: neither of the HDPs bound
Naked CCR1 N-terminus
  binding to the naked CCR1 N-terminus: bind in a dose-dependent manner

## K35E: CCL2 with K35 substituted by glutamic acid (literature)
CCR2
  reduction of CCL2 binding to CCR2 by substitution in CCL2: ≥ 1600 fold

## R24E: CCL2 with R24 substituted by glutamic acid (literature)
CCR2
  reduction of CCL2 binding to CCR2 by substitution in CCL2: ≥ 1600 fold

B1: E26A: mutant version of CCL5, obligate tetramer, expressed in E. coli (protein, UniProt P13501 24-91, looked up, variant E26A)
C-C motif chemokine 5: SPYSSDTTPCCFAYIARPLPRAHIKAYFYTSGKCSNPAVVFVTRKNRQVCANPEKKWVREYINSLEMS
CCR5
  Gαi signaling via CCR5 in DeltaSia and sC cells: very low
  Gαi signaling via CCR5 compared to WT CCL5: WT-like signaling
CCR1; HEK293 DeltaSia and sC
  Gαi signaling via CCR1 in DeltaSia and sC cells: remains high
CCR1
  Gαi signaling via CCR1 compared to WT CCL5: WT-like signaling

B2: E66A: mutant version of CCL5, obligate dimer, expressed in E. coli (protein, UniProt P13501 24-91, looked up, variant E66A)
C-C motif chemokine 5: B1 C-C motif chemokine 5 with A26E, E66A
modifications: also: obligate dimer
notes: mutant version of CCL5, obligate dimer, expressed in E. coli
CCR5
  Gαi signaling via CCR5 in DeltaSia and sC cells: very low
  Gαi signaling via CCR5 compared to WT CCL5: WT-like signaling
CCR1; HEK293 DeltaSia and sC
  Gαi signaling via CCR1 in DeltaSia and sC cells: remains high
CCR1
  Gαi signaling via CCR1 compared to WT CCL5: WT-like signaling

B3: CCL8: human chemokine from Peprotech (protein, UniProt P80075 24-99, looked up)
C-C motif chemokine 8: QPDSVSIPITCCFNVINRKIPIQRLESYTRITNIQCPKEAVIFKTKRGKEVCADPKERWVRDSMKHLDQIFQNLKP
CCR5
  Gαi signaling via CCR5 in DeltaSia cells compared to WT cells: drastically reduced
  Gαi signaling via CCR5 in sC cells compared to WT cells: drastically reduced
  Gαi signaling via M1-CCR5 in DeltaSia and sC cells compared to WT cells: drastically reduced
CCR5-1like
  Gαi signaling via M1-CCR5-1like in DeltaSia and sC cells compared to WT cells: persists in DeltaSia and sC to almost the same high level as observed in WT cells
